The test system of one data set is NSG mice. Kind of data set: Teratoma formation after hES-TEP transplantation in mice. The format is in vivo, mouse. The following applies: mice grafted with day 30 hES-TEPs treated with YM155. How it is done:
Six to ten week old NSG mice were thymectomized as described (Khosravi-Maharlooei et al. 2020) and allowed to recover for at least 3 weeks. After recovery, animals were conditioned with 1.8 Gy total body irradiation (TBI) via X-rays. Cryopreserved fetal swine thymus (60-90 days gestation) was thawed in Medium 199 supplemented with DNAse, gentamicin and HEPES as above. Fetal swine fragments (1-2 mm^3) were injected or not with 2×10^5 hES-derived TEPs with a 28 gauge syringe and coated with 50% matrigel (Corning) in Medium 199. Four to 24 hours after TBI, 1-2×10^6 hES-derived TEPs mixed with 1-2×10^6 thymic mesenchymal cells, 1-2×10^6 thymic mesenchymal cells alone, fetal swine thymus injected with hES-TEPs or fetal swine thymus alone were implanted beneath the kidney capsule and 2×10^5 fetal human CD34+ cells were injected intravenously. Peripheral human immune reconstitution was assayed every 2-3 weeks post-grafting after full recovery as indicated. Blood was collected from the tail vein and immune populations enriched by density gradient centrifugation with Ficoll as described above. […] Gene correlations were evaluated with Pearson Correlation Coefficient with p<0.05 considered significant, linear regression was also performed and r-square determined. Euthanasia due to teratoma growth was plotted on a Kaplan-Meyer plot and analyzed by Mantel Cox Log-rank test to determine p-value. […]

The subject of another data set is pluripotent cells. Kind of data set: OCT4 expression (qPCR) in day 30 hES-TEP cultures after survivin inhibitor treatment. The class given is cell-based, human. The following applies: YM155 20 nM in the final 24 hours of culture, protocol #4c vs #4c+YM155. How it is done:
After 108 hours in total on low-adherence plates with endoderm induction media (described above), embryoid bodies were collected and, without being trypsinized, plated on matrigel-coated, 24-well tissue culture plates (approximately 50,000-70,000 cells/well) in SFD medium supplemented with 200 ng/mL recombinant human (rh) Noggin and 10 μM SB431542 (NS) (as described in established protocols Green et al. 2011), with Retinoic Acid (0.25 μM) and FGF8b 50 ng/mL (as a novel modification of this protocol) for 48 hours. […]
(§1) Quantitative Real-Time PCR Total RNA from clusters of ES cells differentiated for the indicated time with the indicated culture method was extracted using Trizol (Invitrogen), and Direct-zol RNA Miniprep Kit (Zymo Research) according to the manufacturer's instructions. […] Real-time quantitative PCR was performed in 20 ul volume using ABI Power SYBR Green PCR Master Mix on an ABI ViiA7 Thermocycler (Applied Biosystems Life Technologies). […] Quantification of each gene transcript was obtained by comparing the average of triplicate experimental CT values to a standard curve of serially diluted genomic DNA for each primer target and then normalized by dividing by the CT housekeeping gene b-Actin.

The next data set has as its system hESCs. Kind of data set: qPCR gene expression (PAX9, FOXN1) in hESC-derived TEP cultures up to day 30. The format is cell-based, human. How it is done:
After 108 hours in total on low-adherence plates with endoderm induction media (described above), embryoid bodies were collected and, without being trypsinized, plated on matrigel-coated, 24-well tissue culture plates (approximately 50,000-70,000 cells/well) in SFD medium supplemented with 200 ng/mL recombinant human (rh) Noggin and 10 μM SB431542 (NS) (as described in established protocols Green et al. 2011), with Retinoic Acid (0.25 μM) and FGF8b 50 ng/mL (as a novel modification of this protocol) for 48 hours. For pharyngeal endoderm, the resulting cells were then treated for 24 hours with FGF8b (50 ng/mL) and Retinoic Acid ([…]) followed by 8 days with FGF8b (50 ng/mL) and Sonic Hedgehog (Shh) (100 ng/mL) (FIG. 1B). For the 3rd pharyngeal pouch specification, cells were then exposed to rhNoggin (200 ng/mL) for 6 days, and then to BMP4 (10 ng/mL) until day 30 of differentiation (FIG. 2A). To avoid the formation of teratomas after engrafting in mice, cells were also exposed to survivin inhibitor YM155 (20 nM) (Lee et al. 2013)) for 24 hours during the last step in the later experiments (FIG. 4A). During the entire process, cell cultures were maintained in a 5% C02/air environment at 37° C. Cells were fed every 24 hours.
as §1, with “instructions. NanoDrop 2000 spectrophotometer (ThermoFisher Scientific) was used to determine RNA concentration.” for “instructions.”

For the next data set, the system named is ESCs. Kind of data set: Flow cytometry / efficiency of definitive endoderm and anterior foregut endoderm induction. The class given is cell-based, human. To be noted: day 4.5 dissociated embryoid bodies. How it is done:
The differentiation was performed as described Huang et al. 2014 in serum-free differentiation (SFD) medium consisting of DMEM/F12 (3:1) (Life Technologies) supplemented with N2 [Gibco (Life Technologies)], B27 (Gibco), ascorbic acid (50 μg/ml, Sigma), Glutamax (2 mM, Life Technologies), monothioglycerol (0.4 μM, Sigma), 0.05% bovine serum albumin (BSA) (Life Technologies) and 1% penicillin-streptomycin (Thermo Fisher Scientific, Waltham, Mass.). Cells were then briefly trypsinized (0.05%, 1 min at 37° C.) into single cell suspension and plated onto low attachment 6-well plates [Costar 2 (Corning Incorporated, Tewksbury Mass.)] to form embryoid bodies in serum-free differentiation medium containing human BMP4, 0.5 ng/ml, human bFGF, 2.5 ng/ml (R&D Systems) and human activin A, 100 ng/ml (R&D Systems) for 84 hours (3.5 days approximately) on low-adherence plates. Embryoid bodies were then collected, briefly trypsinized (0.05%, 1 min at 37° C.) into 3-10 small cell clumps and resuspended again in endoderm induction medium for another 24 hours. Cells were fed every 24-48 hr (depending on the density) and maintained in a 5% CO2/5% O2/90% N2 environment. […]
Human immune reconstitution and differentiation efficiency of hES-TEP cultures were determined by multi-parametric flow cytometry. […]
Background: In flow cytometry, cells or beads pass a laser one at a time.

Turning to `COCCn1c2c([n+](Cc3cnccn3)c1C)C(=O)c1ccccc1C2=O` [YM155], the animals developing teratomas in the data set with NSG mice is on record as 3 of 15. Also, in the data set with pluripotent cells, the OCT4 expression result is “significantly reduced”.

B1: Noggin: recombinant human Noggin, a BMP4 antagonist and/or inhibitor (protein, UniProt Q13253 28-232, looked up)
Noggin: QHYLHIRPAPSDNLPLVDLIEHPDPIFDPKEKDLNETLLRSLLGGHYDPGFMATSPPEDRPGGGGGAAGGAEDLAELDQLLRQRPSGAMPSEIKGLEFSEGLAQGKKQRLSKKLRRKLQMWLWSQTFCPVLYAWNDLGSRFWPRYVKVGSCFSKRSCSVPEGMVCKPSKSVHLTVLRWRCQRRGGQRCGWIPIQYPIISECKCSC
As to B1, the PAX9 expression entry in the data set with hESCs (Noggin from day 16 to day 22, protocols #3c and #4c vs #3b and #4b, day 30) is “significantly increased”.

B2: BMP4: human Bone Morphogenic Protein 4 (protein, UniProt P12644 293-408, looked up)
Bone morphogenetic protein 4: SPKHHSQRARKKNKNCRRHSLYVDFSDVGWNDWIVAPPGYQAFYCHGDCPFPLADHLNSTNHAIVQTLVNSVNSSIPKACCVPTELSAISMLYLDEYDKVVLKNYQEMVVEGCGCR
Take B2: the “expression of FoxN1” value with hESCs (BMP4 added to day 15 cultures without prior Noggin, assayed at culture day 22 and 30, protocols #3b and #4b) is recorded as “failed to induce expression”. For the same molecule, the “FOXN1 expression day 30 vs day 21” value with hESCs (protocol #4c, before and after BMP4 exposure) was “significantly higher”.

B3: Activin A: human activin A used in endoderm induction medium (protein, UniProt P08476 311-426, looked up)
Inhibin beta A chain: GLECDGKVNICCKKQFFVSFKDIGWNDWIIAPSGYHANYCEGECPSHIAGTSGSSLSFHSTVINHYRMRGHSPFANLKSCCVPTKLRPMSMLYYDDGQNIIKKDIQNMIVEECGCS
Turning to B3, the “co-expression of endoderm markers EpCAM and CXCR4, cells” value in the data set with ESCs was 98.3%.

These data come from US20220127569A1, “METHODS OF PROMOTING THYMIC EPITHELIAL CELL AND THYMIC EPITHELIAL CELL PROGENITOR DIFFERENTIATION OF PLURIPOTENT STEM CELLS, RESULTING CELLS, AND USES THEREOF” (THE TRUSTEES OF COLUMBIA UNIVERSITY IN THE CITY OF NEW YORK, priority 2019, published 2022).
